Data reported in US20090136977.

What was measured:
[1] = target: BACE1Arg (Lys-to-Arg mutant form of BACE1), P56817
[2] = target: affinity purified BACE1 (BACE1-myc, wild type), P56817
affinity purified BACE1 (BACE1-myc, wild type), P56817, sequence (P56817 22-501): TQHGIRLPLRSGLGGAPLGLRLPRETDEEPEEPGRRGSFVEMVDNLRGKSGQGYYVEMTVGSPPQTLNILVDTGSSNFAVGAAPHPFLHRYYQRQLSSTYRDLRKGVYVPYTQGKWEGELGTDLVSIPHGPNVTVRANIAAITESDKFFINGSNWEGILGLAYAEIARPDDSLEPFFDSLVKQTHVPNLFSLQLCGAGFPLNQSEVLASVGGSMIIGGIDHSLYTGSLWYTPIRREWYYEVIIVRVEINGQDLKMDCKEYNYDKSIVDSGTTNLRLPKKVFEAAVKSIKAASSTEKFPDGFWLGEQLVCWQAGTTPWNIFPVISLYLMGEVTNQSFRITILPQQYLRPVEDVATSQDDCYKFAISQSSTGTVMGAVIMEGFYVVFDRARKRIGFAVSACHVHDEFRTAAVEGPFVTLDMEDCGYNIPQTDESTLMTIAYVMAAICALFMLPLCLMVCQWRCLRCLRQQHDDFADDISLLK

BACE1Arg (Lys-to-Arg mutant form of BACE1), P56817, sequence (P56817 other isoform, or with tags, fused parts or gaps mutant): as the sequence (P56817 22-501) above, with K105R, K254R, K258R, K264R, K278R, K279R, K286R counted along it

Row | Protein | in vitro acetylation of BACE1 with [3H]acetylCoA, scintillation counting [1] | acetylation of BACE1 with non-radiolabeled acetylCoA, Western blot with anti-acetylated lysine [2] | acetyltransferase activity of ERGIC fractions (acceptor: affinity purified BACE1) [2] | average cpm/assay ([3H]acetyl incorporated into BACE1) [2] | in vitro acetylation of BACE1 with [3H]acetylCoA, scintillation counting [2]
1 | ATase1 (acetyltransferase 1) with a myc tag at the C-terminus (protein) MAPYHIRKYQESDRKSVVGLLSRGMAEHAPATFRRLLKLPRTLILLLGGALALLLVSGSWILALVFSLSLLPALWFLAKKPWTRYVDIALRTDMSDITKSYLSECGSCFWVGESEEKVVGTVGALPVDDPTLREKRLQLFHLSVDNEHRGQGIAKALVRTVLQFARDQGYSEVVLDTSNIQLSAMGLYQSLGFKKTGQSFFHVWARLVDLHTVHFIYHLPSAQAGRL | purified ATase1 was able to acetylate BACE1WT but not BACE1Arg | clearly indicate that ATase1 can acetylate BACE1 | ERGIC fractions from ATase1-expressing cells displayed increased (~2-fold) acetyltransferase activity | The average cpm/assay for ATase1 was 1737±486 | purified ATase1 was able to acetylate BACE1WT but not BACE1Arg
2 | ATase2 (acetyltransferase 2) with a myc tag at the C-terminus (protein) MAPCHIRKYQESDRQWVVGLLSRGMAEHAPATFRQLLKLPRTLILLLGGPLALLLVSGSWLLALVFSISLFPALWFLAKKPWTEYVDMTLCTDMSDITKSYLSERGSCFWVAESEEKVVGMVGALPVDDPTLREKRLQLFHLFVDSEHRRQGIAKALVRTVLQFARDQGYSEVILDTGTIQLSAMALYQSMGFKKTGQSFFCVWARLVALHTVHFIYHLPSSKVGSL |  | there was a marked increase in the acetylation of both the immature and partially-mature forms of BACE1 |  |  | 
